Patent US20250352579A1 (HEBEI SENLANG BIOTECHNOLOGY, published 2025)

T1: CD7 on cells (K562-CD7 positive cells; KG-1a-GFP-Luc; CCRF-CEM) (UniProt P09564 26-240, limits assumed)
T1 sequence (looked up): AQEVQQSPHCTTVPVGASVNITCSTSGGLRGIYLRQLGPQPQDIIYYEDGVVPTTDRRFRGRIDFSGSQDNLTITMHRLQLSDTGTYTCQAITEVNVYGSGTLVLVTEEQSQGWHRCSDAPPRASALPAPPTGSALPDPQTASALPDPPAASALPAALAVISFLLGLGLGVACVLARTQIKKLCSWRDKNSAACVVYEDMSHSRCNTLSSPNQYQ

T2: CD7-His protein (UniProt P09564 26-180, limits assumed)
T2 construct: extracellular domain; also called recombinant CD7-His protein; CD7 antigen; not shown: His tag
T2 sequence (looked up): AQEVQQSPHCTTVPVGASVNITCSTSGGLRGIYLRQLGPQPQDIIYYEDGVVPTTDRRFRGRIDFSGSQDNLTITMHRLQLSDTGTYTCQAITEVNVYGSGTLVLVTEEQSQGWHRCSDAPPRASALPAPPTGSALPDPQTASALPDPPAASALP


target: T1, CD7 on cells (K562-CD7 positive cells; …); test: cell-based or functional assay

Binder | killing ratio, CAR-T cells on KG-1a-GFP-Luc, E:T=3:1, 4 h, luciferase
VHH10 single VHH CAR (other) QVQLQESGGGLVQTGGSLRLSCEASERTFSSNAVGWFRQAPGKEREFVAAITWSVGTTYYADSVKGRFTISRDNAKNTVYLQMNSLKPEDTAVYYCAASGARHYSGSYLDFGSWGQGTQVTVSSTTPAPRPPTPAPTIASQPLSLRPEACRPAAGGAVHTRGLDFACDIYIWAPLAGTCGVLLLSLVITLYCKRGRKKLLYIFKQPFMRPVQTTQEEDGCSCRFPEEEEGGCELRVKFSRSADAPAYKQGQNQLYNELNLGRREEYDVLDKRRGRDPEMGGKPRRKNPQEGLYNELQKDKMAEAYSEIGMKGERRRGKGHDGLYQGLSTATKDTYDALHMQALPPR | 91.4%
VHH14 single VHH CAR (other) QVQLQESGGGLVQPGGSLRLSCTASGLTLGYYAIGWFRQAPGKEREFVSTISASGGMTYYADSVKGRFTISRDNAKNTVYLEMNSLKPEDTAVYYCAAEYLGNLRHFRGDHWGKGTQVTVSSTTPAPRPPTPAPTIASQPLSLRPEACRPAAGGAVHTRGLDFACDIYIWAPLAGTCGVLLLSLVITLYCKRGRKKLLYIFKQPFMRPVQTTQEEDGCSCRFPEEEEGGCELRVKFSRSADAPAYKQGQNQLYNELNLGRREEYDVLDKRRGRDPEMGGKPRRKNPQEGLYNELQKDKMAEAYSEIGMKGERRRGKGHDGLYQGLSTATKDTYDALHMQALPPR | 60.4%
VHH19 single VHH CAR (other) QVQLQESGGGLVQPGGSLRLSCTASGRAFSMYVMGWFRQAPGKEREFVSTISASGGMTYYADSVKGRFTISRDNAKNTVYLEMNSLKPEDTAVYYCAAEYLGNLRHFRGDHWGKGTQVTVSSTTPAPRPPTPAPTIASQPLSLRPEACRPAAGGAVHTRGLDFACDIYIWAPLAGTCGVLLLSLVITLYCKRGRKKLLYIFKQPFMRPVQTTQEEDGCSCRFPEEEEGGCELRVKFSRSADAPAYKQGQNQLYNELNLGRREEYDVLDKRRGRDPEMGGKPRRKNPQEGLYNELQKDKMAEAYSEIGMKGERRRGKGHDGLYQGLSTATKDTYDALHMQALPPR | 61.7%
VHH07 single VHH CAR (other) QVQLQESGGGLVQAGGSLRLSCAASGRTFSSYVMKWFRQAPGKGREFVAGISWSGSLTSYSDSVKGRFTISRDNAKNTVYLQMNSLKPEDTAVYYCAAGEAATMSDTDYGMDYWGKGTQVTVSSTTPAPRPPTPAPTIASQPLSLRPEACRPAAGGAVHTRGLDFACDIYIWAPLAGTCGVLLLSLVITLYCKRGRKKLLYIFKQPFMRPVQTTQEEDGCSCRFPEEEEGGCELRVKFSRSADAPAYKQGQNQLYNELNLGRREEYDVLDKRRGRDPEMGGKPRRKNPQEGLYNELQKDKMAEAYSEIGMKGERRRGKGHDGLYQGLSTATKDTYDALHMQALPPR | 61.6%
VHH06 single VHH CAR (other) QVQLQESGGGLVQAGGSLRLSCAASGRTFSSYNMGWFRQAPGAEREFVAAISRGGGSTYYADSVKGRFTISRDNAKNTVYLQMNSLRPEDTAVYYCADSGARAYSGSYLDFGSWGQGTQVTVSSTTPAPRPPTPAPTIASQPLSLRPEACRPAAGGAVHTRGLDFACDIYIWAPLAGTCGVLLLSLVITLYCKRGRKKLLYIFKQPFMRPVQTTQEEDGCSCRFPEEEEGGCELRVKFSRSADAPAYKQGQNQLYNELNLGRREEYDVLDKRRGRDPEMGGKPRRKNPQEGLYNELQKDKMAEAYSEIGMKGERRRGKGHDGLYQGLSTATKDTYDALHMQALPPR | 62.2%
VHH12 single VHH CAR (other) QVQLQESGGGLVQPGGSLRLSCAASGSTLDYYAIGWFRQAPGKEREGISCISNSGGMTNYADSVKGRFTISRDNAKNTVYLQMNSLKPEDTAVYYCAAGPAWSYCSGYVPAGLDKFGSWGQGTQVTVSSTTPAPRPPTPAPTIASQPLSLRPEACRPAAGGAVHTRGLDFACDIYIWAPLAGTCGVLLLSLVITLYCKRGRKKLLYIFKQPFMRPVQTTQEEDGCSCRFPEEEEGGCELRVKFSRSADAPAYKQGQNQLYNELNLGRREEYDVLDKRRGRDPEMGGKPRRKNPQEGLYNELQKDKMAEAYSEIGMKGERRRGKGHDGLYQGLSTATKDTYDALHMQALPPR | 78.2%
VHH08 single VHH CAR (other) QVQLQESGGGLVQPGGSLRLSCAASGSIFSIHAMAWYRQAPGKQRELVASITVGGRTNYVDSVLGRFTISRDNAKNTVYLQMNSLKPEDTAVYYCNSLLWAGLRDSWGPGTQVTVSSTTPAPRPPTPAPTIASQPLSLRPEACRPAAGGAVHTRGLDFACDIYIWAPLAGTCGVLLLSLVITLYCKRGRKKLLYIFKQPFMRPVQTTQEEDGCSCRFPEEEEGGCELRVKFSRSADAPAYKQGQNQLYNELNLGRREEYDVLDKRRGRDPEMGGKPRRKNPQEGLYNELQKDKMAEAYSEIGMKGERRRGKGHDGLYQGLSTATKDTYDALHMQALPPR | 68.5%
VHH20 single VHH CAR (other) QVQLQESGGGLVQPGGSLRLSCAASGTTLDDYAVGWFRQAPGKEREGVACISASELSTYYADSVKGRFTISRDNAKNTMYLQMNSLKPEDTAVYYCAARVGRIVDVTSTQYQYWGQGTQVTVSSTTPAPRPPTPAPTIASQPLSLRPEACRPAAGGAVHTRGLDFACDIYIWAPLAGTCGVLLLSLVITLYCKRGRKKLLYIFKQPFMRPVQTTQEEDGCSCRFPEEEEGGCELRVKFSRSADAPAYKQGQNQLYNELNLGRREEYDVLDKRRGRDPEMGGKPRRKNPQEGLYNELQKDKMAEAYSEIGMKGERRRGKGHDGLYQGLSTATKDTYDALHMQALPPR | 9.38%

target: T2, CD7-His protein; test: SPR, CD7-His immobilised on CM5 chip by amino coupling, antibody as analyte
Procedure: In this example, the affinities of the antibodies were measured using the SPR method (surface plasmon resonance method) by immobilizing the CD7-His protein prepared in Example 1 on the CM5 chip through amino coupling method, using the antibodies (dVHH-D, dVHH-E, VHH10, and VHH12) as analytes for the experiments to detect the affinity of each antibody to the CD7 antigen.

Kd | koff | kon | Binder
3.35 nM | 0.000754 s⁻¹ | 225000 M⁻¹ s⁻¹ | dVHH-D (other, also called VHH-10+VHH-12; double VHH antibody dVHH-D; not shown: Linker) chain (part 1 of 2): QVQLQESGGGLVQTGGSLRLSCEASERTFSSNAVGWFRQAPGKEREFVAAITWSVGTTYYADSVKGRFTISRDNAKNTVYLQMNSLKPEDTAVYYCAASGARHYSGSYLDFGSWGQGTQVTVSS chain (part 2 of 2): QVQLQESGGGLVQPGGSLRLSCAASGSTLDYYAIGWFRQAPGKEREGISCISNSGGMTNYADSVKGRFTISRDNAKNTVYLQMNSLKPEDTAVYYCAAGPAWSYCSGYVPAGLDKFGSWGQGTQVTVSS
99.9 nM | 0.0164 s⁻¹ | 164000 M⁻¹ s⁻¹ | VHH10 (VHH, Variable region only; also called anti-CD7 nanobody VHH10) VHH: QVQLQESGGGLVQTGGSLRLSCEASERTFSSNAVGWFRQAPGKEREFVAAITWSVGTTYYADSVKGRFTISRDNAKNTVYLQMNSLKPEDTAVYYCAASGARHYSGSYLDFGSWGQGTQVTVSS
1.34 nM | 9.95e-05 s⁻¹ | 74200 M⁻¹ s⁻¹ | VHH12 (VHH, Variable region only; also called anti-CD7 nanobody VHH12) VHH: QVQLQESGGGLVQPGGSLRLSCAASGSTLDYYAIGWFRQAPGKEREGISCISNSGGMTNYADSVKGRFTISRDNAKNTVYLQMNSLKPEDTAVYYCAAGPAWSYCSGYVPAGLDKFGSWGQGTQVTVSS
4.51 nM | 0.000557 s⁻¹ | 123000 M⁻¹ s⁻¹ | dVHH-E (other, also called VHH-10+VHH-10; double VHH antibody dVHH-E; not shown: Linker) chain (part 1 of 2): QVQLQESGGGLVQTGGSLRLSCEASERTFSSNAVGWFRQAPGKEREFVAAITWSVGTTYYADSVKGRFTISRDNAKNTVYLQMNSLKPEDTAVYYCAASGARHYSGSYLDFGSWGQGTQVTVSS chain (part 2 of 2): QVQLQESGGGLVQTGGSLRLSCEASERTFSSNAVGWFRQAPGKEREFVAAITWSVGTTYYADSVKGRFTISRDNAKNTVYLQMNSLKPEDTAVYYCAASGARHYSGSYLDFGSWGQGTQVTVSS
